Experimental data reported in the DeepSol protein solubility set.

Assay: soluble on expression in E. coli; label from the status in PepcDB or PDB records

| Sequence | soluble on expression in E. coli |
| --- | --- |
| SNAMNILIIGNGGREHALGWKAAQSPLADKIYVAPGNAGTALEPTLENVDIAATDIAGLLAFAQSHDIGLTIVGPEAPLVIGVVDAFRAAGLAIFGPTQAAAQLEGSKAFTKDFLARHNIPSAEYQNFTDVEAALAYVRQKGAPIVIKADGLAAGKGVIVAMTQEEAETAVNDMLAGNAFGDAGHRIVVEEFLDGEEASFIVMVDGENVLPMATSQDHKRVGDGDTGPNTGGMGAYSPAPVVTDDVHQRVMDQVIWPTVRGMAAEGNIYTGFLYAGLMISADGQPKVIEFNCRFGDPETQPIMLRMRSDLVELCLAGTQGKLNEKTSDWDERPSLGVVLAAGGYPADYRQGDVIHGLPQQEVKDGKVFHAGTKLNGNHEVVTNGGRVLCVTALGETVAQAQQYAYQLAEGIQWEGVFCRKDIGYRAIARGK | soluble |
| GSHMKITYPLPPNLPEQLPLLTNCQLEDEAILENHLYQQIDLPNQEVRNLVFRDAVFDHLSLANGQFASFDCSNVRFEACDFSNVEWLSGSFHRVTFLRCNLTGTNFADSYLKDCLFEDCKADYASFRFANFNLVHFNQTRLVESEFFEVTWKKLLLEACDLTESNWLNTSLKGLDFSQNTFERLTFSPNYLSGLKVTPEQAIYLASALGLVIT | soluble |
| MIVAFENNVVCSDEKVRDYLLAHHADLKEDQDEDALCLVRLHKEEDIDGTDRVDLAGWREISRELYWTGEQMECNYSIIRFSRKTTSLQMSVVLSTCNQLEWLEKVLWGYEAQDTKNFELIIADDGSRKETYDMLQRITPQLSFQVKHVWHEDKGFRKCDILNKGILAAQADYLLFSDGDCIPRKDFVSTHLCLRRKGRFLSGGYHKLSMDLSKDITKDDILSGRCFDLQWMRGKGMPASFKNNKLTATGFKRWALNTFTPTKASWNGHNASGWLSDILAVNGFDERMQYGGQDREFGERLENYGIHGMQIRYSTVCLHLDHARGYKTKDSIQKNRNIRKHTRGAKVQWASLGIVKDELRGQSVKVNSYYDRYTREEEKLTSYKEKGGFYRHIYSLPCRWRRAKYHDKVVRAYQQDTDAPALSNHSGVIVSLTTFPPRISQLHLMLKSILWQTCPPEKIIVWLSEQEFPGRLNDLPEELKRLMAKGIAFRFVSENFRSHKKYHYVFREYPDSKVITVDDDLIYPRNTVERLLSLSYQYPDTVCGNVIRKIHMDGNSFSVYRKWTKVFTMPVNSSLQNVAIGCGGIYYPPHWYGEELFDWKIISEHCPSADDLWLKANELKRRVKVTGGGEFYPRPIELPQTQNNSLQKKNNGKTNLNDKQWKSLNELWKLDELYCINGK | not soluble |
| MEALDSSSFTFPQDYEFSYVVNHNCSADGNTYCVQPVKPTTVSRFGTRYIKFDIKALPVGSPIPCKSPKEWRVIKG | not soluble |
| MDKSDMQRTVDSLRSQLNIERTPITVSAAELRRFTESQEDPLVNPIDKKVNPWAEKSKCSML | not soluble |
| MIKSSSKIGLAFFVRPQFDVDLAKNFFNKVQDSLKEAGIATQVFELPVSTDAEALSLAESVNSHQDLHGLIVVQGTFCDASLILNLASNINLPIMIWATKEQPTGGRLSLNSFCGLNLGAHTLVNAGIKFKGVYGSPGSPAVIKKVTSFARAAGAVKWLKGKRIGLFGHRPSGYYPSNFNEILLRKQFGITVEYLSLSEVFSLAQKMEIKDIQPFINTLVGVEGLEMVSTSKSVQAYLALKELIAQKALDAVAVECWPEFMAGFGGAVCYALSRLNDEGIVAACEADVNGAVTMLLGSYLSSQANFIADLVGAEEEQNQLIFWHCGNGPLSLAAPGTNPVAGVHPNRKTPLAMYFPLKGGPVTVSRLSSDHNGNLRLFLGSGTGIETDLLYSGNSLPIQISGSVEETLDTILCEGIEHHYIVTYGDLTSEFREIAELLGLRMITF | not soluble |
| MKHLEIELKTLLKKDEYNRLKDQFTGVTPVLQTNYYIDTPDFELREKKVAMRIRTFEDWAELTLKVPQSVGNMEYNQKLQLKDAENYLSKEELPQGLVLDELAKHGIQSKNWQVLGCLTTLRYEMKTAIGLMALDQSRYFDITDYELELEVENHEQGKQDFRQFLEKNQISYQKAPSKLVRFVKSMKNS | not soluble |
| MIVSSLRGGLGNQMFIYAMVKAMALRNNVPFAFNLTTDFANDEVYKRKLLLSYFALDLPENKKLTFDFSYGNYYRRLSRNLGCHILHPSYRYICEERPPHFESRLISSKITNAFLEGYWQSEKYFLDYKQEIKEDFVIQKKLEYTSYLELEEIKLLDKNAIMIGVRRYQESDVAPGGVLEDDYYKCAMDIMASKVTSPVFFCFSQDLEWVEKHLAGKYPVRLISKKEDDSGTIDDMFLMMHFRNYIISNSSFYWWGAWLSKYDDKLVIAPGNFINKDSVPESWFKLNVRMAGDPLEHHHHHH | not soluble |
| EKAVLIGEKEADITFVTWGSQKGPILDVIEDLKEEGISANLLYLKMFSPFPTEFVKNVLSSANLVIDVESNYTAQAAQMIKLYTGIDIKNKILKYNGRHMTEDEILKSAKEILNKESLMVVLEDGS | not soluble |
| MFKLLKTFQIVYEQMNFSKAATCLYISQPAVSNQIKQLEEELGCSLFLRNGRQDVVPTRQAEVLYNRLLNLADDWQETLTALHQARLPKETCRIAASNTFAVYYLPQLMQHLQTQYATINFVLEMNNSEEVVEKVEKHQVDFGFIEKPLITKGATREEIIQDQLVLAGDPANQNWLVREKDSGVFHYTQQYLEESNQSPTLMTVKNNEMIVKMLELGMGQSLLSRKAITEKIPFQTLGEKYWRSFYFLTRGHLKSSLLQEVKQAIYRFYQTEMNKY | not soluble |
| MGSDKIHHHHHHMKDKSNSPLIKELKLANLLSFGSETTDIQLNSLNVVVGPNGSGKSNLIDAISLLQASPSDLAVPIRKGGGIRDWLWRGMELPTASMEVITPSAPHGNKDLRYYLAFTALKQRFELIDECLETKEPYTNHSEPYFYYRYQNGNPVINNIKDQKRMLKREDIDPEQSILSQRKDPDQYPEITWLGKQFAAIRIYREWNFGRKALLRQPQGADAPNDYLAEDCSNLGLVLNKLRTNYKVKKKVLDLLSQFYEGIDDFDVIVEGGTVQLFLQEGEFMIPATRLSDGTLRFLCLLAILCNPDPPPLICIEEPELGIHSDIIPVIGQLLKDASKMTQLIVTTHSEILVDELTDMPEAVLVCEKHEGMTRFRRLEKDLLKDWLERYSLGELWRKGEIGGTRW | not soluble |
| MDSNDLEASFTSRLPPEIVAALKRKSSRDPNSRFPRKLHMLLTYLASNPQLEEEIGLSWISDTEFKMKKKNVALVMGIKLNTLNVNLRDLAFEQLQHDKGGWTQWKRSGFTRNSVFEDPTQNDSPMHHHHHH | soluble |
| MAHHHHHHMRQGRVRTESTVQRFAKTPIGEGFDLWDRDYLLGAMRLFLFKAETAPPFQVGPCMDATGEILVQLEELEDAREQFSIAAEKYLITQQQQLAKIMEIKALECERGPQAALEELTAFLKKETASTNATAVPAPITRAYAYQAELLLKTATPETPELFTEAVETAKLACNHAWDRVHMGYVVLGDALKASGCPDEARKAYSEAFETNRNCITALERHIEVLKEYIAESNDDMRIEALRKELLPLLESAISLHPRPTLIREKAFLLSETLGDAAALEFLDPLICNPPPEEADAAGNVGGRTVATLLKAKAAILADGGKMQEALEVAEAALKESPSDEEAKAIVAELRESL | soluble |
| MFSTKKSQGNLHKYIQRQSTDEFAVKAREHNYRARSAFKLIEINEKFKFLKPESTVIDIGCAPGSWLQVVVQKCPNGYASGVDLQNVLPIRGADILSLSDITDPAVKLKIREKLAHRQVDVVLSDMAPNPTGDNATDHLRLIELCRSVFRLFSVENEIELVKNGVYLCKIWDGSARAEFVRELSDRFSTVKTVKPTACRDNSAELYLFCRNFKK | not soluble |
| MRRESYRERALVVRSYDFGEADRIIVLFTRGRGIVRGVAKGVRRAKSRFGSRLQPFVELDVQLYRGRNLESITAADTVAYFGAKIIDDVTRFSAASSILEGVEKLAVGDEPRLFDLTVTALKNMQSCAHPVAEVDTFLLQGMNIAGWAPSLFDCAQCGASGPHHAFHPSPGGAVCVHCRPLGAQEVDPETLHMMWLMAQGHRDAVAEIGTPERYQQAHALIRSHLSWHVERGLASLNVLDQV | not soluble |
